Assay results: US20250154284A1 (INMAGENE PTE, published 2025)

Key:
[1] = target: T1, recombinant human MASP-2 protein (human, UniProt O00187 16-686); experiment: BLI (Gator), antibody on Protein A biosensor, recombinant MASP-2 25-200 nM, 30 C
T1 construct: Used as analyte in BLI and SPR; also called hMASP-2; hMASP2-FL
Experimental: Recombinant MASP-2 protein was diluted with kinetics buffer to get a concentration gradient: 200 nM, 100 nM, 50 nM, 25 nM, and 0 nM (reference control). Antibodies were immobilized onto Protein A biosensor after balance. A baseline was detected for 60 seconds. Then, antibody-antigen association was detected for 120 seconds to obtain data for Kₒₙ, followed by detection of dissociation in kinetic buffer for 120 seconds to obtain data for Koff. The regeneration of biosensors was done in buffer 10 mM glycine, pH2.0. All the kinetics data were collected at 30° C. Data were acquired with Gator Bioanalysis System.

[2] = target: T1, recombinant human MASP-2 protein; experiment: cell-based or functional assay
[3] = target: T1, recombinant human MASP-2 protein; experiment: BLI (Gator), antibody on Protein A biosensor, human MASP-2, 30 C
Experimental: The assay was performed at 30° C. and the kinetics buffer was 1×PBS (136 mM NaCl, 8 mM […], 2 mM KH₂PO₄, 2.6 mM KCl) with 0.1% BSA and 0.005% Tween-20, pH7.4. Diluted antibodies and human MASP-2 were added to the corresponding well. After loading human MASP-2, biosensor detected the association and dissociation of antibodies. The regeneration of biosensors was in buffer 10 mM glycine, pH2.0.

T1 sequence (O00187 16-686): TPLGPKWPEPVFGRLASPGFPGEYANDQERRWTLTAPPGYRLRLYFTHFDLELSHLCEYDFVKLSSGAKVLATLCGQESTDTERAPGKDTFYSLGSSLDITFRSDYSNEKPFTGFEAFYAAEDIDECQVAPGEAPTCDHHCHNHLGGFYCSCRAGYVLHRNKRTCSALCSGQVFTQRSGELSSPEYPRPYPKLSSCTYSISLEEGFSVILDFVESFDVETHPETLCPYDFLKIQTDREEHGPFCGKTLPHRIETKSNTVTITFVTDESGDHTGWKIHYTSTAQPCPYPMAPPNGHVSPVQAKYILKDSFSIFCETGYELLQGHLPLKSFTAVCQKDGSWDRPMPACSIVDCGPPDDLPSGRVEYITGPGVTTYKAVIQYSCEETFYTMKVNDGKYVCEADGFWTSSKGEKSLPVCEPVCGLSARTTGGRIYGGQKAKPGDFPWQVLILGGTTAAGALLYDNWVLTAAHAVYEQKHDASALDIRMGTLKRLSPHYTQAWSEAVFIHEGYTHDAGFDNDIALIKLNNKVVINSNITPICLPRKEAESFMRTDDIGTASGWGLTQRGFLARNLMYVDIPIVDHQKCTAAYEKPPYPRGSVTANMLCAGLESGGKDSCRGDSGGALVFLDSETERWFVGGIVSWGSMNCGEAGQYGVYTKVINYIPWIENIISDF

B1: anti-MASP-2 antibody clone 3E10 (chimeric 3E10) (antibody, V domains shown)
VH: EVQLQQSGPGLVQSSQSLSITCTVSGFSLTTYGVHWVRLSPGKGLEWLGVIWKGGSTDYNAAFMSRLSITKDNSKSEVFFQMNSLQGDDSAIYYCVKTLELRRRDYYAMDYWGQGTSVTVSS
VL: DIVMTQTTSSLAVSAGEKVTMSCKSSQNILYSSNQKNLLAWYQQKPGQSPKLLIYWASTRESGVPNRFTGSGSGTDFSLTINSVQPEDLAVYYCHQYFSSYTFGGGTKLEMK
notes: Mouse variable regions; tested as a 'chimeric' antibody; also called 3E10-mus
Kd [1]: < 0.1 nM | koff [1]: < 1e-06 s⁻¹ | kon [1]: 29600 M⁻¹ s⁻¹ | IC50 of C3 activation (mannan-coated plate, human serum) [2]: 4.14 ng/mL | IC50 of C4 activation (mannan-coated plate, human serum) [2]: 3.6 ng/mL | IC50 of C4 activation in 5% human serum [2]: 8.26 ng/mL | IC50 of C4 activation in 10% human serum (methods say 25%) [2]: 30.8 ng/mL | IC50 of C4 activation in 50% human serum [2]: 67.3 ng/mL | IC50 of MAC activation (mannan-coated plate, human serum) [2]: 3.27 ng/mL | Kd [3]: 15.4 nM | koff [3]: 0.00113 s⁻¹ | kon [3]: 73500 M⁻¹ s⁻¹

B2: 3E10-hu-9 (antibody, V domains shown)
VH: QVQLVESGGGVVQPGRSLRLSCAASGFSLTTYGVHWVRQAPGKGLEWLGVIWKGGSTDYNAAFMSRLTISKDNSKSTVYIQMNSLRAEDTAVYYCAKTLELRRRDYYAMDYWGQGTLVTVSS
VL: DIVMTQSPDSLAVSLGERATINCKSSQNILYSSNQKNLLAWYQQKPGQPPKLLIYWASTRESGVPDRFSGSGSGTDFTLTISSLQAEDVAVYYCHQYFSSYTFGQGTKLEIK
notes: also called humanized 3E10 clone with 3E10-hu-VH-9
Kd [3]: 12.8 nM | koff [3]: 0.000952 s⁻¹ | kon [3]: 74200 M⁻¹ s⁻¹

B3: 3E10-hu-0 (antibody, V domains shown)
VH: QVQLVESGGGVVQPGRSLRLSCAASGFTFSTYGVHWVRQAPGKGLEWVAVIWKGGSTDYNAAFMSRFTISRDNSKNTIYIQMNSLRAEDTAVYYCAKTLELRRRDYYAMDYWGQGTLVTVSS
VL: DIVMTQSPDSLAVSLGERATINCKSSQNILYSSNQKNLLAWYQQKPGQPPKLLIYWASTRESGVPDRFSGSGSGTDFTLTISSLQAEDVAVYYCHQYFSSYTFGQGTKLEIK
notes: also called humanized 3E10 clone with 3E10-hu-VH-0
Kd [3]: 26.3 nM | koff [3]: 0.00102 s⁻¹ | kon [3]: 38700 M⁻¹ s⁻¹

B4: 3E10-hu-6 (antibody, V domains shown)
VH: QVQLVESGGGVVQPGRSLRLSCAASGFTLSTYGVHWVRQAPGKGLEWLGVIWKGGSTDYNAAFMSRLTISKDNSKNTVYIQMNSLRAEDTAVYYCAKTLELRRRDYYAMDYWGQGTLVTVSS
VL: DIVMTQSPDSLAVSLGERATINCKSSQNILYSSNQKNLLAWYQQKPGQPPKLLIYWASTRESGVPDRFSGSGSGTDFTLTISSLQAEDVAVYYCHQYFSSYTFGQGTKLEIK
notes: also called humanized 3E10 clone with 3E10-hu-VH-6
Kd [3]: 15.2 nM | koff [3]: 0.000985 s⁻¹ | kon [3]: 64600 M⁻¹ s⁻¹

B5: 3E10-hu-7-1 (antibody, V domains shown)
VH: QVQLVESGGGVVQPGRSLRLSCAASGFTLSTYGVHWVRQAPGKGLEWLGVIWKGGSTDYNAAFMSRLTISKDNSKSTVYIQMNSLRAEDTAVYYCAKTLELRRRDYYAMDYWGQGTLVTVSS
VL: DIVMTQSPDSLAVSLGERATINCKSSQNILYSSNQKNLLAWYQQKPGQPPKLLIYWASTRESGVPDRFSGSGSGTDFTLTISSLQAEDVAVYYCHQYFSSYTFGQGTKLEIK
notes: also called humanized 3E10 clone with 3E10-hu-VH-7-1
Kd [3]: 17.3 nM | koff [3]: 0.00114 s⁻¹ | kon [3]: 65700 M⁻¹ s⁻¹

B6: 3E10-hu-7-2 (antibody, V domains shown)
VH: QVQLVESGGGVVQPGRSLRLSCAASGFTLSTYGVHWVRQAPGKGLEWLGVIWKGGSTDYNAAFMSRLTISKDNSKNTVYIQMNSLRAEDTAVYYCVKTLELRRRDYYAMDYWGQGTLVTVSS
VL: DIVMTQSPDSLAVSLGERATINCKSSQNILYSSNQKNLLAWYQQKPGQPPKLLIYWASTRESGVPDRFSGSGSGTDFTLTISSLQAEDVAVYYCHQYFSSYTFGQGTKLEIK
notes: also called humanized 3E10 clone with 3E10-hu-VH-7-2
Kd [3]: 14.7 nM | koff [3]: 0.00107 s⁻¹ | kon [3]: 72900 M⁻¹ s⁻¹

B7: 3E10-hu-8 (antibody, V domains shown)
VH: QVQLVESGGGVVQPGRSLRLSCAASGFSLTTYGVHWVRQAPGKGLEWLGVIWKGGSTDYNAAFMSRLTISKDNSKNTVYIQMNSLRAEDTAVYYCAKTLELRRRDYYAMDYWGQGTLVTVSS
VL: DIVMTQSPDSLAVSLGERATINCKSSQNILYSSNQKNLLAWYQQKPGQPPKLLIYWASTRESGVPDRFSGSGSGTDFTLTISSLQAEDVAVYYCHQYFSSYTFGQGTKLEIK
notes: also called humanized 3E10 clone with 3E10-hu-VH-8
Kd [3]: 15.6 nM | koff [3]: 0.00107 s⁻¹ | kon [3]: 68600 M⁻¹ s⁻¹

B8: 3E10-hu-10 (antibody, V domains shown)
VH: QVQLVESGGGVVQPGRSLRLSCAASGFSLTTYGVHWVRQAPGKGLEWLGVIWKGGSTDYNAAFMSRLTISKDNSKSTVYIQMNSLRAEDTAVYYCVKTLELRRRDYYAMDYWGQGTLVTVSS
VL: DIVMTQSPDSLAVSLGERATINCKSSQNILYSSNQKNLLAWYQQKPGQPPKLLIYWASTRESGVPDRFSGSGSGTDFTLTISSLQAEDVAVYYCHQYFSSYTFGQGTKLEIK
notes: also called humanized 3E10 clone with 3E10-hu-VH-10
Kd [3]: 15.3 nM | koff [3]: 0.00111 s⁻¹ | kon [3]: 72800 M⁻¹ s⁻¹

B9: 3E10-hu-11 (antibody, V domains shown)
VH: QVQLVESGGGVVQPGRSLRISCAASGFSLTTYGVHWVRQAPGKGLEWLGVIWKGGSTDYNAAFMSRLTISKDNSKSTVYIQMNSLRAEDTAVYYCVKTLELRRRDYYAMDYWGQGTLVTVSS
VL: DIVMTQSPDSLAVSLGERATINCKSSQNILYSSNQKNLLAWYQQKPGQPPKLLIYWASTRESGVPDRFSGSGSGTDFTLTISSLQAEDVAVYYCHQYFSSYTFGQGTKLEIK
notes: also called humanized 3E10 clone with 3E10-hu-VH-11
Kd [3]: 13.7 nM | koff [3]: 0.00107 s⁻¹ | kon [3]: 77700 M⁻¹ s⁻¹

B10: 3E10-hu-12 (antibody, V domains shown)
VH: QVQLVESGGGVVQPGRSLRISCAVSGFSLTTYGVHWVRQAPGKGLEWLGVIWKGGSTDYNAAFMSRLTISKDNSKSTVYIQMNSLRAEDTAVYYCVKTLELRRRDYYAMDYWGQGTLVTVSS
VL: DIVMTQSPDSLAVSLGERATINCKSSQNILYSSNQKNLLAWYQQKPGQPPKLLIYWASTRESGVPDRFSGSGSGTDFTLTISSLQAEDVAVYYCHQYFSSYTFGQGTKLEIK
notes: also called humanized 3E10 clone with 3E10-hu-VH-12
Kd [3]: 14.3 nM | koff [3]: 0.00103 s⁻¹ | kon [3]: 72300 M⁻¹ s⁻¹
